No end group written: not given here.

As a reminder, the Kd is the equilibrium constant for the complex coming apart.

The test concerns the target SNX27 PDZ (amino acids 740–141) (human, UniProt Q96L92 43-136). Kind of test: fluorescence polarisation. The note with it: both partners purified. For orientation: Fluorescence polarisation rises when a labelled molecule tumbles more slowly, as on binding a larger partner.

SADAQSFLNGFAV (also: FITC-labeled) [FITC-labeled peptide NSP11 4393-4405 of SARS-CoV-2] yielded a Kd above 400 µM.

The values are drawn from PMC9610207 (Viruses, 2022).
